From publication PMC8591511, “Flexible open conformation of the AP-3 complex explains its role in cargo recruitment at the Golgi” (The Journal of Biological Chemistry, 2021)

How the values were obtained:
[1] = target: T1, GFP-tagged AP-3 complex (Apl6 tagged C-terminally with mGFP) (S. cerevisiae, UniProt Q08951 1-932; P46682 1-809; P38153 1-483; P47064 1-194); assay: single-molecule TIRF microscopy on polymer-supported membranes; polymer-supported membranes (Golgi mixture with 1 mol% PI4P) with or without Arf1 (10 nM), Sec7ΔC (10 nM) and 400 μM GTPγS, or reconstituted Vam3; GFP-tagged AP-3 (2 nM) labelled with anti-GFP nanobody-Dy647; room temperature; monitored 45 min; settings: both partners purified
T1 construct: Apl5, δ-subunit of the yeast AP-3 complex; Apl6, β3-subunit of the yeast AP-3 complex; Apm3, μ3-subunit of the yeast AP-3 complex; Aps3, σ-subunit of the yeast AP-3 complex; also called GFP-AP-3; source: yeast strain with Apl6 fused to GFP, purified; labelled via anti-GFP nanobody carrying DY647 or Alexa Fluor 568; not shown: mGFP, C-terminal, kept; copies: + + +
T1 sequence (Q08951 whole entry, chain 1 of 4, the tested form may be a part): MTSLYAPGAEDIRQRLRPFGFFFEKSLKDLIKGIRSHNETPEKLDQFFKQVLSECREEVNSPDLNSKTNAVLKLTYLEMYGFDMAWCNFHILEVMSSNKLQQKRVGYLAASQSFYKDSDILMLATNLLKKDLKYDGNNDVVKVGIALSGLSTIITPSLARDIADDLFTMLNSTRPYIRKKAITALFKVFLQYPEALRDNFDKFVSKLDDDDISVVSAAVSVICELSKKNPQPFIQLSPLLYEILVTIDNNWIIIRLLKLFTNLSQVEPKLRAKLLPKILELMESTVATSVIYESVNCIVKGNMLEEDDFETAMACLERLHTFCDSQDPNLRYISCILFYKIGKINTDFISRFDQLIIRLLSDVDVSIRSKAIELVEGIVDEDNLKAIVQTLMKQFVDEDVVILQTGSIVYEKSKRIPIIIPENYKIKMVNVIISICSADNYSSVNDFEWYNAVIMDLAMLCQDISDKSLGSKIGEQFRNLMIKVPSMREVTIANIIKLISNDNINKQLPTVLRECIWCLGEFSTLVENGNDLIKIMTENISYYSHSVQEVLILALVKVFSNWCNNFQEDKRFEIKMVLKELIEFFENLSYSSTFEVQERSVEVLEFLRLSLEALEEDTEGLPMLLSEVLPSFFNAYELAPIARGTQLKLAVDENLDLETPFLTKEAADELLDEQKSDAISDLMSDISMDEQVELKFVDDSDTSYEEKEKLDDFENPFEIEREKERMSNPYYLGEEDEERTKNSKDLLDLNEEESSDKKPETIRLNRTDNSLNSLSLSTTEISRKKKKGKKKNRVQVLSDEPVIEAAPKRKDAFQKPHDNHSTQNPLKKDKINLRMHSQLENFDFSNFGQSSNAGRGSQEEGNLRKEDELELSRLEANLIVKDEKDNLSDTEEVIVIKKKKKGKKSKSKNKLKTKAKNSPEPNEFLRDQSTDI
T1 sequence (P46682 whole entry, chain 2 of 4, the tested form may be a part): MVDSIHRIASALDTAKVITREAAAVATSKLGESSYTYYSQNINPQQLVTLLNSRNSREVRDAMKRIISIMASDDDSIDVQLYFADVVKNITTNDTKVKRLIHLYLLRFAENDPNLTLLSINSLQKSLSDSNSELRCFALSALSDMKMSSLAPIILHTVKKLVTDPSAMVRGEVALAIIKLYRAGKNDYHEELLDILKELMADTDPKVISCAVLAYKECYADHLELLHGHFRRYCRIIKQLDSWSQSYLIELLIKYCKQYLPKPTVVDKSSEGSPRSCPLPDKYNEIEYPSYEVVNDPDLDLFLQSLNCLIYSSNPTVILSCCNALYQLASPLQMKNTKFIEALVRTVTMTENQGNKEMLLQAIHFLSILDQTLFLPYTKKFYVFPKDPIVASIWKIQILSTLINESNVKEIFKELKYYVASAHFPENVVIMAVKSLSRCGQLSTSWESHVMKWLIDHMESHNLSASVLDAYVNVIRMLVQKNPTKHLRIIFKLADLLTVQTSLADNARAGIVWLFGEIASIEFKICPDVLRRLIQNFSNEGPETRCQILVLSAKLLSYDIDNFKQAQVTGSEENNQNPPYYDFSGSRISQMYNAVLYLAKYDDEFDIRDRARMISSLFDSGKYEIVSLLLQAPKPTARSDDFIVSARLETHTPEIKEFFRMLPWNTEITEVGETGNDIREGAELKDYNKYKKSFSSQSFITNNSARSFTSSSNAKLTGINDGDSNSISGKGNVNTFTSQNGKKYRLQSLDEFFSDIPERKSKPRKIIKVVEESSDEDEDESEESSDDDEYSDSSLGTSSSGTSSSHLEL
T1 sequence (P38153 whole entry, chain 3 of 4, the tested form may be a part): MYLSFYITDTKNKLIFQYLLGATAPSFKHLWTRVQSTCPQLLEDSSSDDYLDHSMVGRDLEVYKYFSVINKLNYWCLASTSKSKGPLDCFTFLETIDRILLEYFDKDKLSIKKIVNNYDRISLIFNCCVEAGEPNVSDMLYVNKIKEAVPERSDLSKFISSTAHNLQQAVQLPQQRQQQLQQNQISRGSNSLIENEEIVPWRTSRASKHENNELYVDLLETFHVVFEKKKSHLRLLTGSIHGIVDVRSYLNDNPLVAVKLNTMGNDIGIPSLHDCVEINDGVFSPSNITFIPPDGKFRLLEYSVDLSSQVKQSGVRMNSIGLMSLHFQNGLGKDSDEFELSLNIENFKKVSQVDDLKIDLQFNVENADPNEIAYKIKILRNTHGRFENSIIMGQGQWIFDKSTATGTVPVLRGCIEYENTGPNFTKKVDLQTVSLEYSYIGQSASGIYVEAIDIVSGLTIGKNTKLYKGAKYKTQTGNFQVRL
T1 sequence (P47064 whole entry, chain 4 of 4, the tested form may be a part): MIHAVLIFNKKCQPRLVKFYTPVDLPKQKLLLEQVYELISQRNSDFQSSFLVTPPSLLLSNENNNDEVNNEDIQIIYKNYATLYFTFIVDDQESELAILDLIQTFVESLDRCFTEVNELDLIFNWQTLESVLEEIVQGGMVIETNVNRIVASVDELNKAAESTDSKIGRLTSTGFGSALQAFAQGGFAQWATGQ

[2] = target: T1, GFP-tagged AP-3 complex (Apl6 tagged …); assay: single-molecule tracking of cargo mobility (TIRF microscopy); labelled Vam3 in polymer-supported membranes tracked before and after the addition of AP-3; without Arf1 and Sec7; settings: both partners purified

B1: Vam3 (yeast vacuolar SNARE, AP-3 cargo with dileucine motif) (natural protein, UniProt Q12241 1-283, looked up)
chain: MSFFDIEAQSSKGNSQQEPQFSTNQKTKELSNLIETFAEQSRVLEKECTKIGSKRDSKELRYKIETELIPNCTSVRDKIESNILIHQNGKLSADFKNLKTKYQSLQQSYNQRKSLFPLKTPISPGTSKERKDIHPRTEAVRQDPESSYISIKVNEQSPLLHNEGQHQLQLQEEQEQQQQGLSQEELDFQTIIHQERSQQIGRIHTAVQEVNAIFHQLGSLVKEQGEQVTTIDENISHLHDNMQNANKQLTRADQHQRDRNKCGKVTLIIIIVVCMVVLLAVLS
notes: Vam3, yeast SNARE; transmembrane domain aa 263–283; source: reconstituted into proteoliposomes or polymer-supported membranes
B1: binds [1].

B2: Vam3 labelled with Atto 647N (natural protein, yeast, UniProt Q12241 1-283, looked up)
chain: B1 chain
modifications: Atto 647N (Maleimide)
notes: Vam3, yeast SNARE; also called prelabeled transmembrane cargo; source: reconstituted into polymer-supported membranes
B2: binds [2].
